# Measurements: article PMC7619409 (Molecular cell, 2024)
# T1: Arp6 subunit (yeast, UniProt Q12509 1-438)
# T1 construct: Stood in the assay as part of m1
# T1 sequence: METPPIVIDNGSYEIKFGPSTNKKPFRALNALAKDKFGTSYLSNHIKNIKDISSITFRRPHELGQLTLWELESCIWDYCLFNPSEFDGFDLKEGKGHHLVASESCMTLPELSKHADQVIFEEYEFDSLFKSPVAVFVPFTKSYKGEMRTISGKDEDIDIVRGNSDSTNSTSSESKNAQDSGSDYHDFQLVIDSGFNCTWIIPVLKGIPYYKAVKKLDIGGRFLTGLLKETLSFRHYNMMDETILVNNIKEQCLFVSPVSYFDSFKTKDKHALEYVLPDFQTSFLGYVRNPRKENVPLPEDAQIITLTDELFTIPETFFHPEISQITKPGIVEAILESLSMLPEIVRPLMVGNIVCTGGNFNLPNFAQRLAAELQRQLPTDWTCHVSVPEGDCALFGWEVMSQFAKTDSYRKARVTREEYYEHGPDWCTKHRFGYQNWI
# Columns and labels:
# Experiment in all cases: cryo-EM structure; SWR1-hexasome complex, 3.5 Å; SWR1 premixed 1:1 with hexasome, 1 mM ADP:BeF, 25 mM HEPES pH 7.5, 50 mM NaCl, 30°C 10 min, glycerol gradient, no crosslinking
# Settings in all cases: both partners purified
# Arp6 subunit = target: T1, Arp6 subunit
# S. cerevisiae histone H4 = S. cerevisiae histone H4 (S. cerevisiae, UniProt P02309 1-103)
# Swr1 subunit = target: T2, Swr1 subunit (yeast, UniProt Q05471 1-1514)
# T2 construct: Stood in the assay as part of m1; also called Swr1 motor domains
# T2 sequence (Q05471 whole entry, the tested form may be a part): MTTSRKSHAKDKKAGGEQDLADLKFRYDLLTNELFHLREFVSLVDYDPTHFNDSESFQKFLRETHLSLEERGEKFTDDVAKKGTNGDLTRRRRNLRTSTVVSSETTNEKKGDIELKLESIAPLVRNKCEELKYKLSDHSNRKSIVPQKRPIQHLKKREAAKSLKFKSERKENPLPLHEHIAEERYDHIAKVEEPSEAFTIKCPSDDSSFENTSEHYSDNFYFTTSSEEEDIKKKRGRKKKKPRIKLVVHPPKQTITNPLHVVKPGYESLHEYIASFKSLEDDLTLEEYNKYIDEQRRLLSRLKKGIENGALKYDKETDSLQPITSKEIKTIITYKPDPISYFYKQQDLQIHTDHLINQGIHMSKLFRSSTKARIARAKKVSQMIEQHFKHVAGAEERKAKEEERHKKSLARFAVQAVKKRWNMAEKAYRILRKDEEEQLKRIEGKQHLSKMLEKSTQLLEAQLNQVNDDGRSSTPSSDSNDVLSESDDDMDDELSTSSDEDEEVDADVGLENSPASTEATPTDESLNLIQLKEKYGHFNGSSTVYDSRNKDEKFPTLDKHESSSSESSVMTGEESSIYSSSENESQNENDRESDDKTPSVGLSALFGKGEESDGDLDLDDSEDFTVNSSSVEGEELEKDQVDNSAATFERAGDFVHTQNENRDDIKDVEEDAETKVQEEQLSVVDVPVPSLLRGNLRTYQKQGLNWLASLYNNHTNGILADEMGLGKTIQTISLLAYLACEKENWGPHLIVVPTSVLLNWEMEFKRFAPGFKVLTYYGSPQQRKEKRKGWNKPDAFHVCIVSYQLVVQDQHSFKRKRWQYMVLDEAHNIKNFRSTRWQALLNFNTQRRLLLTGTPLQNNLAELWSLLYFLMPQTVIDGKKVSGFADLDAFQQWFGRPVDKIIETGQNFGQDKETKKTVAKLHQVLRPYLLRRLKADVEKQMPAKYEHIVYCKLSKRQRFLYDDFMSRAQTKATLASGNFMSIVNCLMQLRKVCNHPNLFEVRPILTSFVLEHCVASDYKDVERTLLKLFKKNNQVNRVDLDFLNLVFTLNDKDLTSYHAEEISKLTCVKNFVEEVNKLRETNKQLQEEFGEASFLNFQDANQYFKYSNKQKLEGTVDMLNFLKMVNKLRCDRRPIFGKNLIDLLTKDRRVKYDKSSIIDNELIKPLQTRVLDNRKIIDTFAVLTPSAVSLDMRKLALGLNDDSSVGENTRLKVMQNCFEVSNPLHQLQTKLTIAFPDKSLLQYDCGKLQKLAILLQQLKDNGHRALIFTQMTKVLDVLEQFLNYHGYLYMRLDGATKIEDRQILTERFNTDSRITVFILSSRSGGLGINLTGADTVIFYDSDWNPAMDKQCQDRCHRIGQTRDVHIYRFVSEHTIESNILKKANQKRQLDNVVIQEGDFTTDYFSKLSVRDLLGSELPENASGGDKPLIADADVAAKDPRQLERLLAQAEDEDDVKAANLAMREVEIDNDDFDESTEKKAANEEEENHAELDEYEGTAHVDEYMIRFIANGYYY
binding result (Arp6 subunit),binding result (S. cerevisiae histone H4),binding result (Swr1 subunit),Binder
binds,,,"Swc6 subunit (natural protein, yeast, Stood in the assay as part of m1) MKALVEEIDKKTYNPDIYFTSLDPQARRYTSKKINKQGTISTSRPVKRINYSLADLEARLYTSRSEGDGNSISRQDDRNSKNSHSFEERYTQQEILQSDRRFMELNTENFSDLPNVPTLLSDLTGVPRDRIESTTKPISQTSDGLSALMGGSSFVKEHSKYGHGWVLKPETLREIQLSYKSTKLPKPKRKNTNRIVALKKVLSSKRNLHSFLDSALLNLMDKNVIYHNVYNKRYFKVLPLITTCSICGGYDSISSCVNCGNKICSVSCFKLHNETRCRNR"
,binds,binds,"Swc5 subunit (natural protein, yeast, residues 196-303 built in the structure; Stood in the assay as part of m1) MPEVETKIIPNEKEDEDEDGYIEEEDEDFQPEKDKLGGGSDDSDASDGGDDYDDGVNRDKGRNKVDYSRIESESGGLIKTRRARQAEEEYAKTHKYESLTVESIPAKVNSIWEELQEASKNRLLSSSGKVGSVLDGSKEARSTTAAQQEDKILIERNYKFAGETVHEKKWVSRSSAEGQEYLNSLKFKQQAPAAPVQLEKAVRTKSNESRQHLRRPLKRPPLLEQIISGGLRPKLTTLEKSQLDWASYVDRAGLNDELVLHNKDGFLARQEFLQRVGSAEDERYKELRRQQLAQQLQQDSEAS"
